Positions count from the first letter of the chain named.
Columns and labels:
canine beta-NGF (cNGF) [1] = molecular target: T1, canine beta-NGF (cNGF) (canine, UniProt Q29074 110-229 (pig entry)); assay: SPR (Biacore), cNGF binding; KD column of Table 7
T1 construct: also called canine NGF; can NGF
T1 chain: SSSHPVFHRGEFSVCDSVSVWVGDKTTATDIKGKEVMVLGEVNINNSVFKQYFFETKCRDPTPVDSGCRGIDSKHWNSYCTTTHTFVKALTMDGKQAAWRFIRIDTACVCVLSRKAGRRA

canine beta-NGF (cNGF) [2] = molecular target: T1, canine beta-NGF (cNGF); assay: SPR (Biacore), cNGF binding
NGF (species not stated) [3] = assay: cell-based or functional assay
feline NGF = molecular target: T2, feline NGF (feline); assay: SPR, Biacore 3000, feline NGF
T2 chain: T1 chain
Experimental: Affinities of selected felinized anti-NGF antibody to feline NGF were measured using SPR (Surface Plasmon Resonance), Biacore 3000. Kinetics of association and dissociation of a felinized mAb with/from feline NGF were measured at different concentrations.

canine beta-NGF (cNGF) [4] = molecular target: T1, canine beta-NGF (cNGF); assay: cell-based or functional assay
NGF (species not stated) [5] = assay: cell-based or functional assay; remark: listed apart in the source
rat NGF = rat NGF (rat, UniProt P25427 122-241); assay: cell-based or functional assay
Sequence of rat NGF (P25427 122-241 limits assumed): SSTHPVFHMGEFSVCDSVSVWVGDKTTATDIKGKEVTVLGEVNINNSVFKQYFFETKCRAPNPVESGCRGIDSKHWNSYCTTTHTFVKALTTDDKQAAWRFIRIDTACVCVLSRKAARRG

canine beta-NGF (cNGF) [6] = molecular target: T1, canine beta-NGF (cNGF); assay: SPR (Biacore)
canine beta-NGF (cNGF) [7] = molecular target: T1, canine beta-NGF (cNGF); assay: SPR (Biacore), KD column of Table 3

B1: 182m43 (antibody, V domains shown)
VH: EVQLVESGGDLARPGGSLKLSCVVSGFTLTQYGINWVRQAPGKGLQWVTVIWATGATDYNSALKSRFTVSRDNAMNTVYLQMNSLRVEDTAVYYCARDGWWYATSWYFDVWGQGTLVTVSS
VL: DIVMTQTPLSLSVSPGEPASISCKASQDINHYLNWFRQKPDGTVKLLIYYTHSLHNGVPSRFSGSGSGTDFTLRISRVEADDAGVYYCQQGDHFPRTFGQGT
notes: 51 except in CDR2 (THSLHN); 51 as printed; also called Can-182-m43
- Kd (canine beta-NGF (cNGF) [1]): 4320 pM
- Kd (canine beta-NGF (cNGF) [2]): 4320 pM
- koff (canine beta-NGF (cNGF) [2]): 3.32e-06 s⁻¹
- kon (canine beta-NGF (cNGF) [2]): 769 M⁻¹ s⁻¹

B2: mAb 1B (ZTS-082) (antibody, IgG1a, V domains shown)
VH: DVQLVESGGDLVQPGGSLRLTCVASGFTLTQYGINWVRQAPGKGLQWVAVIWATGATDYNSALKSRFTISRDNAKNTLYLQMNSLKTEDTATYYCARDGWWYATSWYFDVWGQGALVTVSS
VL: B1 VL with S14T, F36Y, R37L, H52S, S53R, N56S, A83V, Q100P
notes: Felinized IgG with feline heavy and kappa constant regions; also called ZTS-082-1B; H1-23 / KPL
- IC50 (nM) (pERK-1/2, cell line expressing human TrkA) (NGF (species not stated) [3]): 1.28 nM
- Kd (feline NGF): 9.41 pM

B3: H733KPL (antibody, V domains shown)
VH: B2 VH with Q13K, I69M, K75R, A115T
VL: B1 VL with S14T, F36Y, R37L, H52S, S53R, N56S, A83V, Q100P
notes: also called ZTS-082-2E
- IC50 (nM) (pERK-1/2, cell line expressing human TrkA) (NGF (species not stated) [3]): 1.34 nM
- Kd (feline NGF): 0.458 pM

B4: 182m114 (antibody, V domains shown)
VH: B1 VH
VL: B1 VL with H52A, N56Q
notes: 51 except in CDR2 (TASLHQ); 51 (CDR2 Pos. 1-6 = residues 51-56); also called Can-182-m114
- Kd (canine beta-NGF (cNGF) [1]): 707 pM
- Kd (canine beta-NGF (cNGF) [2]): 707 pM
- koff (canine beta-NGF (cNGF) [2]): 1.27e-06 s⁻¹
- kon (canine beta-NGF (cNGF) [2]): 1790 M⁻¹ s⁻¹

B5: 182m70 (antibody, V domains shown)
VH: B1 VH
VL: B1 VL with H52S, N56G
notes: 51 except in CDR2 (TSSLHG); 51 (CDR2 Pos. 1-6 = residues 51-56); also called Can-182-m70
- Kd (canine beta-NGF (cNGF) [1]): 4900 pM
- Kd (canine beta-NGF (cNGF) [2]): 4900 pM
- koff (canine beta-NGF (cNGF) [2]): 9.46e-06 s⁻¹
- kon (canine beta-NGF (cNGF) [2]): 1930 M⁻¹ s⁻¹

B6: H3AQC2301B12L1AL1L3 (ZTS-00103182) (antibody, V domains shown)
VH: B1 VH
VL: B1 VL with H52S, S53R, N56S
notes: Caninized IgG; 49 as printed runs on into CH1; the VL entry stops at FGQGT; also called ZTS-182; wt 182
- Kd (canine beta-NGF (cNGF) [1]): 2.7 pM
- IC50 [nM] (TrkA cell based assay) (canine beta-NGF (cNGF) [4]): 1.26 nM
- IC50 nM (TF-1 proliferation inhibition, NGF 2.0 ng/ml) (NGF (species not stated) [5]): 0.046 nM
- IC50 µg/ml (TF-1 proliferation inhibition, NGF 2.0 ng/ml) (NGF (species not stated) [5]): 0.00693 µg/mL
- IC50 nM (inhibition of neurite outgrowth, PC12 cells, rat NGF 10 ng/ml) (rat NGF): 0.21 nM
- IC50 µg/ml (inhibition of neurite outgrowth, PC12 cells, rat NGF 10 ng/ml) (rat NGF): 0.031 µg/mL
- Kd (canine beta-NGF (cNGF) [6]): 61 pM

B7: H3AQC23L1A02D9L2 (antibody, V domains shown)
VH: B1 VH
VL: B1 VL with K24R, N30S, H31N, Y50K, H52N, H55Q, N56T, D92S, H93T, F94L
notes: Caninized IgG
- binding result (canine beta-NGF (cNGF) [7]): no binding

B8: H733 L3-K36 (antibody, V domains shown)
VH: B2 VH with Q13K, I69M, K75R, A115T
VL: DIVMTQTPLSLPVTPGEPASISCKASQDINHYLNWYLQKPGQSPRLLIYYTSRLHSGVPSRFSGSGSGTDFTLRISSVEADDVGVYYCQQGDHFPRTFGQGT
notes: also called ZTS-082-361
- IC50 (nM) (pERK-1/2, cell line expressing human TrkA) (NGF (species not stated) [3]): 1.13 nM
- Kd (feline NGF): 0.334 pM

B9: H1-23L3K36 (antibody, V domains shown)
VH: B2 VH
VL: B8 VL
notes: also called ZTS-082-1C
- IC50 (nM) (pERK-1/2, cell line expressing human TrkA) (NGF (species not stated) [3]): 1.3 nM
- Kd (feline NGF): 916 pM

B10: 182m72 (antibody, V domains shown)
VH: B1 VH
VL: B1 VL with H52S, N56Q
notes: 51 except in CDR2 (TSSLHQ); 51 (CDR2 Pos. 1-6 = residues 51-56); also called Can-182-m72
- Kd (canine beta-NGF (cNGF) [1]): 74.1 pM
- Kd (canine beta-NGF (cNGF) [2]): 74.1 pM
- koff (canine beta-NGF (cNGF) [2]): 2.79e-07 s⁻¹
- kon (canine beta-NGF (cNGF) [2]): 3760 M⁻¹ s⁻¹

B11: 182m75 (antibody, V domains shown)
VH: B1 VH
VL: B1 VL with H52S, N56V
notes: 51 except in CDR2 (TSSLHV); 51 (CDR2 Pos. 1-6 = residues 51-56); also called Can-182-m75
- Kd (canine beta-NGF (cNGF) [1]): 2030 pM
- Kd (canine beta-NGF (cNGF) [2]): 2030 pM
- koff (canine beta-NGF (cNGF) [2]): 8.99e-07 s⁻¹
- kon (canine beta-NGF (cNGF) [2]): 444 M⁻¹ s⁻¹

B12: H1-23K643 (antibody, V domains shown)
VH: B2 VH
VL: EIQMTQSPSSLSASPGDRVTITCKASQDINHYLNWYQQKPGKVPKLLIYYTSRLHSGVPSRFSGSGSGTDFTLTISSLEPEDAATYYCQQGDHFPRTFGGGT
notes: also called ZTS-082-2D
- IC50 (nM) (pERK-1/2, cell line expressing human TrkA) (NGF (species not stated) [3]): 1.48 nM
- Kd (feline NGF): 177 pM
